Source: PMC7840522, “Ca14-3-3 Interacts With CaWRKY58 to Positively Modulate Pepper Response to Low-Phosphorus Starvation”

T1: CaWRKY58-6xHis (Capsicum annuum, UniProt Q5DJV3 1-378)
T1 sequence: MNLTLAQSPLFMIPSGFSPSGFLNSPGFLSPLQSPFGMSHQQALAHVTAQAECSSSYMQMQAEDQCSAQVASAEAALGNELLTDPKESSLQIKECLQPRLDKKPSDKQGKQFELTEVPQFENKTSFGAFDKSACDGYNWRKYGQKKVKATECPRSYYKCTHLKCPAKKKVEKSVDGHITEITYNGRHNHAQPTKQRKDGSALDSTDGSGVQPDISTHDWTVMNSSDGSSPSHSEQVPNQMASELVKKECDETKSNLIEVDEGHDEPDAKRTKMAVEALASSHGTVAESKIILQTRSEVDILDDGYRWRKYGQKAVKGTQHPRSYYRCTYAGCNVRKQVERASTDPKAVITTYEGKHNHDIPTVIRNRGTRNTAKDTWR

B1: mCaPHR1-P (mCaPHR1-Pcy5) (dsDNA)
DNA 1: AAACTATGCTCCTACATCTAAATTT
DNA 2: AAATTTAGATGTAGGAGCATAGTTT

Assays:
[1] = biological target: Ca14-3-3-GFP (pepper (Capsicum annuum)); assay: MST; 20 nM Ca14-3-3-GFP as target, CaWRKY58-6 × His as ligand serially diluted (1.0E^-10 to 1.0E^-3 mM), 10 min in interaction buffer, Monolith NT.115, 50% IR laser power, ambient temperature
[2] = biological target: T1, CaWRKY58-6xHis; assay: EMSA; not stated in the material (EMSA as in cited works; Cy5 probes, Odyssey CLX); conditions: protein: recombinant; tags: 6xHis (pDEST17; text says N-terminal 6xHis); label: Cy5

Molecule | Kd [1] [nM] | binding result [2]
CaWRKY58-6 × His (GFP fusion protein) | 210 | 
B1 |  | no binding
